Test results as given in publication PMC3101288.

Biological target: HlmI (thioredoxin-disulfide oxidoreductase-like dithiol oxidase of the holomycin gene cluster) (Streptomyces clavuligerus)
Assay: SEC

stoichiometry N: 2
Substance: HlmI (thioredoxin-disulfide oxidoreductase-like dithiol oxidase of the holomycin gene cluster) (enzyme)
